One may read the Kd as the equilibrium constant for the complex coming apart. Low readings indicate a tighter complex, high ones a looser complex.

Positions count from the first letter of the chain named.

Common to all, as to experiment: SPR, antibody captured, C2 as analyte;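 further: biacore SPR at 37 °C, anti-C2 mAbs captured via goat anti-human IgG on CM5 chips, double-referenced sensorgrams fit to a 1:1 kinetic or steady-state model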
In general terms: Surface plasmon resonance follows binding to a sensor surface in real time, without labels.

One experiment has as its target T1, human C2 H451A (human, UniProt P06681 21-752).
T1 sequence: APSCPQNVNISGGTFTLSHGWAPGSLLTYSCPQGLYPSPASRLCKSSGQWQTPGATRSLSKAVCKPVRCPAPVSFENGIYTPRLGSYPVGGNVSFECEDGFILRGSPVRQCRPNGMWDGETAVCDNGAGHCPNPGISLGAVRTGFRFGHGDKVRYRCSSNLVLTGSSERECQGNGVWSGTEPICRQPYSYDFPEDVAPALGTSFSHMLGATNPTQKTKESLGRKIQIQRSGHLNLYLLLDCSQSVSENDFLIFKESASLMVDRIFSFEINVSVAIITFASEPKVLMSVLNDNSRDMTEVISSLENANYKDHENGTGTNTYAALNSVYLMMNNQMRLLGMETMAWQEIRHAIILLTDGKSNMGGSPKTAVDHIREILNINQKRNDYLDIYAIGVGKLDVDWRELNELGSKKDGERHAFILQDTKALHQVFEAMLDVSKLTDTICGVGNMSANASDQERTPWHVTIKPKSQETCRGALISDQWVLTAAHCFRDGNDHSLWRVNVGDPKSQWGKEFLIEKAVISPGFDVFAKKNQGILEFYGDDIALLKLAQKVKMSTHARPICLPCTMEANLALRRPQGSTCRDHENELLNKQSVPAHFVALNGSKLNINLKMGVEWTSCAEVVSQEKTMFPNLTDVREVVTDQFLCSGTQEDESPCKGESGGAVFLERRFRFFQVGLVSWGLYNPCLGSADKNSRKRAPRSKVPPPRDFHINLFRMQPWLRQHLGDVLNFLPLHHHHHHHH

The target of a further experiment is T2, human C2 E324A (human, UniProt P06681 21-752).
T2 sequence: T1 sequence with E304A, A431H

Another experiment addresses T3, human C2 E267A (human, UniProt P06681 21-752).
T3 sequence: T1 sequence with E247A, A431H

Another experiment concerns the target T4, human C2 E476A (human, UniProt P06681 21-752).
T4 sequence: T1 sequence with A431H, E456A

B1: RF16-226 (antibody, human IgG4 S228P, lambda)
heavy: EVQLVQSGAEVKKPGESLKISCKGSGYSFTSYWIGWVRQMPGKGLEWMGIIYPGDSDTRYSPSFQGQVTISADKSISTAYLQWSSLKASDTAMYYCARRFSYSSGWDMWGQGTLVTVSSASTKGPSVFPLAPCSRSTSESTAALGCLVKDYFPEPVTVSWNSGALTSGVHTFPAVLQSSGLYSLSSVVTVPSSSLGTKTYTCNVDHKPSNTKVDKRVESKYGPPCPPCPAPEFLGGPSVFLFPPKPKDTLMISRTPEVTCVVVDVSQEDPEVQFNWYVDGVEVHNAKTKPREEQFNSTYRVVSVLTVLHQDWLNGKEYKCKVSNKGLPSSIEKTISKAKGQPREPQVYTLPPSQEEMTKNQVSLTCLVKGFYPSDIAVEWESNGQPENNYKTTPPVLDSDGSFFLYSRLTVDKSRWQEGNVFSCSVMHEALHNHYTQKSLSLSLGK
light: SYELTQPPSVSVSPGQTARITCSGDALTSKYVAWYQQKSGLAPLLVIYEDTRRPSGIPAKFSGSSSGSVATLTISGAHGDDEADYYCYSTDASGHQRVFGGGTKLTVLSQPKAAPSVTLFPPSSEELQANKATLVCLISDFYPGAVTVAWKADGSPVKAGVETTKPSKQSNNKYAASSYLSLTPEQWKSHRSYSCQVTHEGSTVEKTVAPTECS
notes: pH-dependent anti-C2 antibody from a phage display library; also called WT
In the case of B1, the dissociation constant (Kd) with human C2 H451A was found to be 105 nM; with human C2 E324A, 12.2 nM; with human C2 E267A it was 11.2 nM; with human C2 E476A it was 19.6 nM.

Source of the values: patent US20220332804A1 (CSL INNOVATION, published 2022).
